The source of these data is patent publication EP0571085A1 (BAYLOR COLLEGE OF MEDICINE, dated 1993).

Sequences and labels used below:
B1: human creatine kinase B subunit (wild-type) (enzyme)
chain: not shown
notes: One subunit (monomer) that associates into dimers; Tested in crude detergent extracts of transfected COS cells; also called B creatine kinase; B CK
B2: human creatine kinase M subunit (wild-type) (enzyme)
chain: not shown
notes: One subunit (monomer) that associates into dimers; Tested in crude detergent extracts of transfected COS cells; also called M creatine kinase; M CK

Data set [1] deals with the molecule itself. Put plainly: nondenaturing electrophoresis of extracts of COS cells cotransfected with M, B and lys⁻M constructs.
Data set [2] has as its target B2. Nature of the data set: nondenaturing electrophoresis of extracts of COS cells cotransfected with all three constructs.
Data set [3] concerns the molecule itself. Nature of the data set: nondenaturing electrophoresis of extracts of COS cells cotransfected with M, mutant M and B constructs (dimer formation).

Regarding B1, the binding result in data set [1] and in data set [2] was “binds” in each case.

As to B2, the binding result in data set [3] is given as “binds”.
